Reference: patent US20020127543A1, “Methods and compositions utilizing hepatitis C virus molecules” (priority 1999, published 2002)
Read-outs that look alike come from different tables or passages of the source.

Tests used:
[1] = tested on: Dabsyl peptide with KKRQR core (synthetic); conditions: FRET quenching
[2] = tested on: Dabsyl peptide with KKKQR core (synthetic); conditions: FRET quenching
[3] = tested on: Dabsyl peptide with KKQKR core (synthetic); conditions: FRET quenching
[4] = tested on: Dabsyl peptide with KKQRR core (synthetic); conditions: FRET quenching
[5] = tested on: Dabsyl peptide with RRRRR core (synthetic); conditions: FRET quenching, 50 mM Tris pH 7.4, 110 mM KCl
[6] = tested on: Dabsyl peptide with KKKKK core (synthetic); conditions: FRET quenching
[7] = tested on: Dabsyl peptide with QQQQQ core (synthetic); conditions: FRET quenching, R2 N/A
[8] = tested on: eIF3 (eukaryotic initiation factor 3 complex); experiment: EMSA
[9] = molecular target: HCV mIRES RNA; experiment: FRET titration of fluorescein-labelled RNA with Dabsyl-labelled peptides; assay type: binding; conditions: HCV loopIII RNA 10 nM, pH7.4, 110 mM KCl
Text: (§1) Oligoribonucleotides with a fluorescein attached to the 5′ end of the molecule (shown in FIG. 6a) were synthesised using conventional oligoribonucleotide techniques. A 19 mer (FIG. 6b) was used for control purposes
(§2) Fluoresein-labeled RNA was titrated with Dabsyl-labelled peptides. The donor (fluorescein) fluoresence was excited at 490 nm. In the presence of peptide, binding leads to a quenching of fluorescence by the non-fluorescent acceptor dye Dabsyl. The quenching curves allow the determination of binding affinities. Fluorescein-labelled RNA containing the mIRES was titrated with various peptides.
(§3) FIG. 7 illustrates binding curves for RNA containing the mIRES titrated with various peptides. Experimental conditions: Fam-labelled RNA (10 nM) was titrated with Dabsyl-labelled peptide in 50 mM Tris/Cl, pH7.4, 110 mM KCl, 5ug/ml BSA, 0.01% Triton X-100, 1%DMSO. Fluorescence (excitation 490 nm/emission at 535 nm) was determined in 96-well plates using a Fluorescence plate reader. The assay volume was 100 μl.
(§4) Dissociation constants were determined by fitting a binding isotherm (1-site-binding) to the titration data using the equation
(§5) Y=((Fmax−Fmin)−((Fmax−Fmin)*c/(Kd+c)))+Fmin

[10] = molecular target: 19mer control RNA; experiment: FRET titration of fluorescein-labelled control RNA with Dabsyl-labelled peptides; assay type: binding
Text: as §1, §2, §3, §4, §5

[11] = molecular target: IIIB-Dabcyl RNA; experiment: Inhibition of paromomycin-TAMRA binding to IIIB-Dabcyl RNA (FRET); set-up: species or system HCV
Method: Measurements were made in a 2 mL cuvette. Increasing amounts of IIIB-Dabcyl RNA (corresponding to the amounts shown in the figure) were added to a solution of 10 nM paromomycin-TAMRA in the presence of 50 mM Tris.HCl pH7.5, 80 mM KCl. For each titration point emission spectra were acquired using a fixed wavelength of 552 nm with the excitation slits set to 5 nm and the emission slits set to 10 nm. Emission spectra were acquired over the range 570-600 nm. Two binding curves are presented, the first in the absence of a test molecule (FIG. 8a) and the second in the presence of 10 μM neomycin (FIG. 8b).

[12] = relative to DIII, no complex formed

19-mer control RNA (FIG. 6b)
Kd ([1]; R2 N/A): > 500 nM | Kd ([2]; R2 N/A): > 500 nM | Kd ([3]; R2 N/A): > 500 nM | Kd ([4]; R2 N/A): > 500 nM | Kd [5]: 194 nM | Kd ([6]; R2 N/A): > 500 nM | Kd [7]: > 500 nM

HCV IRES Domain II (DII)
binding signal [8, 12]: 0.5%

HCV IRES Domain III (DIII)
binding signal ([8]; reference, 60 mM KCl, 3 mM MgCl2, 200 nM tRNA, on ice, relative affinity by unlabelled RNA competition): 100%

HCV mIRES RNA (loop III, FIG. 6a)
Kd ([1]; 50 mM Tris pH 7.4, 110 mM KCl): 104 nM | Kd ([2]; 50 mM Tris pH 7.4, 110 mM KCl): 90 nM | Kd ([3]; 50 mM Tris pH 7.4, 110 mM KCl): > 500 nM | Kd ([4]; 50 mM Tris pH 7.4, 110 mM KCl): 41 nM | Kd ([5]; ±10, 10 nM RNA): 30 nM | Kd ([6]; 50 mM Tris pH 7.4, 110 mM KCl): 49 nM | Kd ([7]; 50 mM Tris pH 7.4, 110 mM KCl): > 500 nM

KKKKK
Kd [9]: 49 nM | Kd [10]: > 500 nM

KKKQR
Kd [9]: 90 nM | Kd [10]: > 500 nM

KKQKR
Kd [9]: > 500 nM | Kd [10]: > 500 nM

KKQRR
Kd [9]: 41 nM | Kd [10]: > 500 nM

KKRQR
Kd [9]: 104 nM | Kd [10]: > 500 nM

Neomycin
Ki ([11]; 10 nM paromomycin-TAMRA, 10 μM neomycin): 520 nM | Inhibition of paromomycin-TAMRA binding to IIIB-Dabcyl RNA (in words) ([11]; 10 uM): inhibits paromomycin-TAMRA binding to IIIB-Dabcyl RNA

QQQQQ
Kd [9]: > 500 nM | Kd [10]: > 500 nM

RRRRR
Kd [9]: 30 ± 10 nM | Kd [10]: 194 nM

tRNA
binding signal [8, 12]: 0.1%
